B1: GHBD1: γ-hydroxybutyrate dehydrogenase homolog from tulip pistil (SEQ ID NO: 14), expressed from pTrcEtp (protein)
chain: MEVGFLGLGIMGKAMAVNLLRSGFRVTVWNRTLSKCNELLEQGASVGETPAAVIKKCKYTIAMLSDPSAALSVVFDKDGVLEHMSSGKGYIDMSTVDAVTSSKISEAITQKGGHFLEAPVSGSKKPAEDGQLVILAAGEKALYEEIIPAFEVLGKKSFFLGQVGNGANMKLIVNMIMGSMMNALSEGLSLAGKSGLEQKTLLDVLDLGAIANPMFKLKGPAMIQNNHPPAFPLKHQQKDMRLALALGDENAVSMPVAAAANEAFKKARSLGLGDLDFSAVYEVLKYGDAS
modifications: tulip pistil
B2: GHBD2: γ-hydroxybutyrate dehydrogenase homolog from Arabidopsis (SEQ ID NO: 16), expressed from pTrcAds (protein)
chain: MEVGFLGLGIMGKAMSMNLLKNGFKVTVWNRTLSKCDELVEHGASVCESPAEVIKKCKYTIAMLSDPCAALSVVFDKGGVLEQICEGKGYIDMSTVDAETSLKINEAITGKGGRFVEGPVSGSKKPAEDGQLIILAAGDKALFEESIPAFDVLGKRSFYLGQVGNGAKMKLIVNMIMGSMMNAFSEGLVLADKSGLSSDTLLDILDLGAMTNPMFKGKGPSMNKSSYPPAFPLKHQQKDMRLALALGDENAVSMPVAAAANEAFKKARSLGLGDLDFSAVIEAVKFSRE
modifications: Arabidopsis

Columns and labels:
Type in all cases: biochemical
[1] = Dehydrogenase assay of protein extracts, oxidation of NADPH or NADH at 340 nm; details: 1.5 mM succinic semialdehyde; for activity with NADH as electron donator: 0.5 mM NADH; for specific activity: 0.5 mM NADPH, pH 7.2, room temperature, protein extract
Protocol: Plasmids pTrcEtp and pTrcAds were retransformed into TOP10 cells and freshly plated transformants were used in gene expression studies. In addition, the pTrcHis-TOPO/lacZ plasmid (Invitrogen) was also transformed into TOP10 cells to be used as a negative control in expression experiments. Freshly transformed Escherichia coli colonies containing pTrcEtp, pTrcAds or pTrcHis-TOPO/lacZ were inoculated into 2 mL of LB liquid media containing ampicillin (100 μg/mL) and grown at 37° C. for 5 h. These were then transferred to 100 mL of LB liquid media containing ampicillin (100 μg/mL) and cultures were grown overnight at room temperature. The next morning, the cultures were diluted to an OD600 nm of 0.2 and were grown at room temperature until the OD600 nm reached 0.8. IPTG was added to the cultures to a concentration of 0.4 mM and cultures were grown for an additional 3 h at room temperature. The cultures were then centrifuged at 10,000× g for 15 min, the supernatant was decanted and the resulting pellet was resuspended in 2 mL of breakage buffer (100 mM HEPES, pH 7.2; 10 % glycerol; 1 mM AEBSF; 1 μg/mL leupeptin; and 1 μg/mL pepstatin). Cells were broken by passage two times through a french press and the resulting extract was centrifuged at 16,000× g for 15 min at 4° C. The supernatant was carefully removed (soluble protein) and the pellet was resuspended in 1 mL of breakage buffer. An additional 1 mL of breakage buffer containing 12 mM CHAPS was added and after mixing and incubation on ice for 30 min, the mixture was centrifuged at 16,000× g for 15 min at 4° C. The supernatant was carefully removed (CHAPS soluble protein) and the pellet was resuspended in 2 mL of breakage buffer (insoluble protein).
Protein extracts (soluble, CHAPS soluble and insoluble) from TOP10 cells containing pTrcEtp, pTrcAds and pTrcHis-TOPO/lacZ were assayed by measuring the oxidation of NADPH or NADH using the decrease in absorbance at 340 nm (Hearl et al., J. Biol. Chem. 260:16361-16366 (1985)). Assays contained 100 mM potassium phosphate (pH 7.2), 10% glycerol, 1.5 mM succinic semialdehyde, 0.5 mM of either NADPH or NADH and from 10 μg-400 μg of enzyme extract in a total volume of 1 mL. Assays were initiated by addition of succinic semialdehyde and were measured at room temperature. Protein concentrations of each extract were determined using the BioRad protein assay (Biorad). Protein extracts were also analyzed by SDS-PAGE.

[2] = Coupled assay with purified GABT: reduction of α-methylenesuccinatesemialdehyde, MBL detected by HPLC; details: coupled with 100 μg GABT, 1 mM α-methylene-γ-aminobutyrate, 0.5 mM NADPH, room temperature, 30 min
Protocol: (§1) All proteins eluted at around 120 mM immidazole. Purified proteins from pTrcAds and pTrcEtp were assayed with succinatesemialdehyde and NADPH as described above. […] Assays contained 0.5 mM NADPH, 100 mM sodium phosphate (pH 7.0), 1 mg/mL BSA, succinatesemialdehyde and enzyme in 200 μL total. Assays were carried out at various concentrations of succinatesemialdehyde (0.1-30 mM) using 3 μg/mL of each enzyme. Under these conditions, the kinetic parameters for the Arabidopsis dehydrogenase (kcat=1290 min-1, KM=4 mM) and the Tulip dehydrogenase (kcat=1200 min^−1, KM=3 mM) were determined. The ablility of each enzyme to reduce to α-methylenesuccinatesemialdehyde to α-methylene-γ-hydroxybutyrate was assessed in a coupled assay. The GABT protein from E. coli, purified as described above, was used to generate α-methylenesuccinatesemialdehyde from α-methylene-γ-aminobutyrate. This assay was carried out in the presence or absence of the Arabidopsis and Tulip dehydrogenase. […] To this was added either the Arabidopsis or Tulip protein (20 μg/mL and 3 μg/mL) or no additional protein as negative control. Assays were incubated at room temperature for 30 min and the reaction was stopped with 10% HCl. Acidification of the assay also served to partially convert α-methylene-γ-hydroxybutyrate to α-methylene-γ-butyrolactone (MBL). […] Compounds were detected with a Waters 9600 PDA detector. […]

[3] = Kinetic analysis of purified dehydrogenases with succinatesemialdehyde and NADPH; details: purified enzyme 3 μg/mL, succinatesemialdehyde 0.1-30 mM, 0.5 mM NADPH, pH 7.0
Protocol: Cultures were grown at 37° C. for 5 h and then were transferred to 100 mL of LB liquid media containing ampicillin (100 μg/mL). These were grown overnight at room temperature. The next morning, 50 mL of each culture was transferred to 1 L of LB and grown at room temperature until the OD600 nm reached 0.8. IPTG was added to the cultures to a concentration of 0.4 mM and cultures were grown for an additional 4 h at room temperature. The cultures were then centrifuged at 10,000× g for 15 min, the supernatant was decanted and the resulting pellet was resuspended in 10 mL of breakage buffer (100 mM HEPES, pH 7.2; 10 % glycerol; 1 mM AEBSF; 1 μg/mL leupeptin; and 1 μg/mL pepstatin). Cells were broken by passage two times through a french press and the resulting extract was centrifuged at 16,000× g for 15 min at 4° C. The supernatant was carefully removed and 40 mL of Ni loading buffer (20 mM sodium phosphate, pH 7.5; 10 mM immidazole; 500 mM sodium chloride) was added. Proteins were loaded onto a 5 mL Hitrap chelating column (Pharmacia, Inc.) pre-equilibrated with 100 mM nickel sulfate and washed with 20 mL of loading buffer. Another wash with 50 mL of loading buffer containing 60 mM immidazole was carried out and bound proteins were eluted with a gradient of loading buffer containing immidazole from 60 mM to 1000 mM. All fractions were analyzed by SDS-PAGE.
as §1

| Molecule | activity with NADH as electron donator [1] | specific activity [1] | conversion of α-methylenesuccinatesemialdehyde [2] | Km [3] | kcat [3] |
| --- | --- | --- | --- | --- | --- |
| B1 | no activity | 0.14 μmol/min^−1/mg^−1 | could convert | 3 mM | 20 s⁻¹ |
| B2 | no activity | 0.097 μmol/min^−1/mg^−1 | could convert | 4 mM | 21.5 s⁻¹ |

Reference: patent US20030170653A1, “Biological method for the production of tuliposide A and its intermediates” (priority 2001, published 2003)
